Reference: patent US20110152173A1 (EMERGENT PRODUCT DEVELOPMENT SEATTLE, published 2011)

B1: TRU(XT6)-1058 (Fc fusion)
chain: LPAQVAFTPYAPEPGSTCRLREYYDQTAQMCCSKCSPGQHAKVFCTKTSDTVCDSCEDSTYTQLWNWVPECLSCGSRCSSDQVETQACTREQNRICTCRPGWYCALSKQEGCRLCAPLRKCRPGFGVARPGTETSDVVCKPCAPGTFSNTTSSTDICRPHQICNVVAIPGNASMDAVCTSTSPTRSMAPGAVHLPQPVSTRSQHTQPTPEPSTAPSTSFLLPMGPSPPAEGSTGDTGEPKSSDKTHTCPPCPAPEAAGAPSVFLFPPKPKDTLMISRTPEVTCVVVDVSHEDPEVKFNWYVDGVEVHNAKTKPREEQYNSTYRVVSVLTVLHQDWLNGKAYACAVSNKALPAPIEKTISKAKGQPREPQVYTLPPSRDELTKNQVSLTCLVKGFYPSDIAVEWESNGQPENNYKTTPPVLDSDGSFFLYSKLTVDKSRWQQGNVFSCSVMHEALHNHYTQKSLSLSPGQRHNNSSLNTRTQKARHSPNSEVQLLESGGGLVQPGGSLRLSCAASGFTFSMYTMHWVRQAPGKGLEWVSWISPSGGWTKYADSVKGRFTISRDNSKNTLYLQMNSLRAEDTAVYYCAVSPWGGPFDYWGQGTLVTVSSGGGGSGGGGSGGGGSQDIQMTQSPSTLSASVGDRVTITCRASQSISSWLAWYQQKPGKAPKLLIYKASTLESGVPSRFSAGGSGTEFTLTISSLQPDDFGTYYCQQYNSYSLTFGGGTKVEII
notes: not trimmed; also called Xceptor TNFRSF1B::anti-HIL6
B2: TRU(XT6)-1019 (Fc fusion)
chain: LPAQVAFTPYAPEPGSTCRLREYYDQTAQMCCSKCSPGQHAKVFCTKTSDTVCDSCEDSTYTQLWNWVPECLSCGSRCSSDQVETQACTREQNRICTCRPGWYCALSKQEGCRLCAPLRKCRPGFGVARPGTETSDVVCKPCAPGTFSNTTSSTDICRPHQICNVVAIPGNASMDAVCTSTSPTRSMAPGAVHLPQPVSTRSQHTQPTPEPSTAPSTSFLLPMGPSPPAEGSTGDTGEPKSSDKTHTCPPCPAPEAAGAPSVFLFPPKPKDTLMISRTPEVTCVVVDVSHEDPEVKFNWYVDGVEVHNAKTKPREEQYNSTYRVVSVLTVLHQDWLNGKAYACAVSNKALPAPIEKTISKAKGQPREPQVYTLPPSRDELTKNQVSLTCLVKGFYPSDIAVEWESNGQPENNYKTTPPVLDSDGSFFLYSKLTVDKSRWQQGNVFSCSVMHEALHNHYTQKSLSLSPGQRHNNSSLNTRTQKARHSPNSEVQLLESGGGLVQPGGSLRLSCAASGFTFSWYLMHWVRQAPGKGLEWVSGIWPSGGHTLYADSVKGRFTISRDNSKNTLYLQMNSLRAEDTAVYYCAREPLLWFGELSYNWFDPWGQGTLVTVSSGGGGSGGGGSGGGGSQDIQMTQSPSSVSASVGDRVTITCRASQGISSWLAWYQQKPGKAPKLLIYAASSLQSGVPSRFSGSGSGTDFTLTISSLQPEDFATYYCQQANSFPLTFGGGTKVEIK
notes: as for B1
B3: TRU(X6T)-1019 (Fc fusion)
chain: EVQLLESGGGLVQPGGSLRLSCAASGFTFSWYLMHWVRQAPGKGLEWVSGIWPSGGHTLYADSVKGRFTISRDNSKNTLYLQMNSLRAEDTAVYYCAREPLLWFGELSYNWFDPWGQGTLVTVSSGGGGSGGGGSGGGGSQDIQMTQSPSSVSASVGDRVTITCRASQGISSWLAWYQQKPGKAPKLLIYAASSLQSGVPSRFSGSGSGTDFTLTISSLQPEDFATYYCQQANSFPLTFGGGTKVEIKTGEPKSSDKTHTCPPCPAPEAAGAPSVFLFPPKPKDTLMISRTPEVTCVVVDVSHEDPEVKFNWYVDGVEVHNAKTKPREEQYNSTYRVVSVLTVLHQDWLNGKAYACAVSNKALPAPIEKTISKAKGQPREPQVYTLPPSRDELTKNQVSLTCLVKGFYPSDIAVEWESNGQPENNYKTTPPVLDSDGSFFLYSKLTVDKSRWQQGNVFSCSVMHEALHNHYTQKSLSLSPGQRHNNSSLNTRTQKARHSPNSLPAQVAFTPYAPEPGSTCRLREYYDQTAQMCCSKCSPGQHAKVFCTKTSDTVCDSCEDSTYTQLWNWVPECLSCGSRCSSDQVETQACTREQNRICTCRPGWYCALSKQEGCRLCAPLRKCRPGFGVARPGTETSDVVCKPCAPGTFSNTTSSTDICRPHQICNVVAIPGNASMDAVCTSTSPTRSMAPGAVHLPQPVSTRSQHTQPTPEPSTAPSTSFLLPMGPSPPAEGSTGD
notes: also called Xceptor in the reverse orientation
B4: TRU(XT6)-1006 (Fc fusion)
chain: LPAQVAFTPYAPEPGSTCRLREYYDQTAQMCCSKCSPGQHAKVFCTKTSDTVCDSCEDSTYTQLWNWVPECLSCGSRCSSDQVETQACTREQNRICTCRPGWYCALSKQEGCRLCAPLRKCRPGFGVARPGTETSDVVCKPCAPGTFSNTTSSTDICRPHQICNVVAIPGNASMDAVCTSTSPTRSMAPGAVHLPQPVSTRSQHTQPTPEPSTAPSTSFLLPMGPSPPAEGSTGDTGEPKSSDKTHTCPPCPAPEAAGAPSVFLFPPKPKDTLMISRTPEVTCVVVDVSHEDPEVKFNWYVDGVEVHNAKTKPREEQYNSTYRVVSVLTVLHQDWLNGKAYACAVSNKALPAPIEKTISKAKGQPREPQVYTLPPSRDELTKNQVSLTCLVKGFYPSDIAVEWESNGQPENNYKTTPPVLDSDGSFFLYSKLTVDKSRWQQGNVFSCSVMHEALHNHYTQKSLSLSPGQRHNNSSLNTRTQKARHSPNSEVQLLESGGGLVQPGGSLRLSCAASGFTFSQYNMIWVRQAPGKGLEWVSWISSSGGTEYADSVKGRFTISRDNSKNTLYLQMNSLRAEDTAVYYCAKDRGYGSGSYGAYDAFDIWGQGTMVTVSSGGGGSGGGGSGGGGSQDIQMTQSPSSLSASVGDRVTITCQTSQSIDRYLNWYQQKAGEAPKLLIYAASSLQSGVPSRFSGSGSGTDFTLTISSLQPEDFASYYCQQSYRTPRTFGQGTKVEIK
notes: not trimmed; also called Xceptor TNFRSF1B::HIL6
B5: TRU(XT6)-1002 (Fc fusion)
chain: LPAQVAFTPYAPEPGSTCRLREYYDQTAQMCCSKCSPGQHAKVFCTKTSDTVCDSCEDSTYTQLWNWVPECLSCGSRCSSDQVETQACTREQNRICTCRPGWYCALSKQEGCRLCAPLRKCRPGFGVARPGTETSDVVCKPCAPGTFSNTTSSTDICRPHQICNVVAIPGNASMDAVCTSTSPTRSMAPGAVHLPQPVSTRSQHTQPTPEPSTAPSTSFLLPMGPSPPAEGSTGDTGEPKSSDKTHTCPPCPAPEAAGAPSVFLFPPKPKDTLMISRTPEVTCVVVDVSHEDPEVKFNWYVDGVEVHNAKTKPREEQYNSTYRVVSVLTVLHQDWLNGKAYACAVSNKALPAPIEKTISKAKGQPREPQVYTLPPSRDELTKNQVSLTCLVKGFYPSDIAVEWESNGQPENNYKTTPPVLDSDGSFFLYSKLTVDKSRWQQGNVFSCSVMHEALHNHYTQKSLSLSPGQRHNNSSLNTRTQKARHSPNSEVQLLESGGGLVQPGGSLRLSCAASGFTFSFYQMHWVRQAPGKGLEWVSGIYPSGGYTKYADSVKGRFTISRDNSKNTLYLQMNSLRAEDTAVYYCARDLGYGSSWYYFDYWGQGTLVTVSSGGGGSGGGGSGGGGSQSALTQPASVSGSPGQSITISCSGTDSDVGGYNHVSWYQQHPGKAPKLIIYDVDHRPSGISNRFSGSKSGNTASLTISGLQAEDEADYYCSSYRSGSTYVFGTGTKVTVL
notes: also called Xceptor TNFRSF1B::anti-HIL6

What was measured:
[1] = target: T1, recombinant human TNF-α (human, UniProt P01375 77-233); experiment: ELISA: Xceptor captured on anti-human IgG-Fc, rhTNF-α added, detected with anti-TNF-α-biotin
T1 construct: also called rhTNFα
T1 sequence (P01375 77-233 limits assumed): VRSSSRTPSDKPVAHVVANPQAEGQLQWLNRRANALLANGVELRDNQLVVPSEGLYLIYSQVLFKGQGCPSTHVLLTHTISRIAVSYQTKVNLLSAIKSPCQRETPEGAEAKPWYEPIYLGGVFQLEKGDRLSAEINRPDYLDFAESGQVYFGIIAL
Description: Added to each well of a 96-well plate was 100 μl goat anti-human IgG-Fc (ICN Pharmaceuticals, Costa Mesa, Calif.) from a 2 μg/ml solution in PBS, pH 7.2-7.4. The plate was covered, and incubated overnight at 4° C. After washing four times with PBS-T, 250 μl Blocking buffer was added to each well, the plate was covered, and incubated at room temperature for 2 hours (or at 4° C. overnight). […] After washing the plate five times with PBS-T, 100 μl per well horse radish peroxidase-conjugated streptavidin (Jackson ImmunoResearch, West Grove, Pa.) diluted 1:1,000 in Working buffer was added, the plate was covered, and incubated at room temperature for 30 minutes. After washing the plate six times with PBS-T, 100 μl per well 3,3,5,5-tetramentylbenzidine (TMB) substrate solution (Pierce, Rockford, Ill.) was added for about 3 to 5 minutes and then the reaction was stopped with 50 μl Stop buffer (1N H₂SO₄) per well. The absorbance of each well was read at 450 nm.

[2] = target: T2, recombinant human sIL-6R (human, UniProt P08887 20-358, limits assumed); experiment: ELISA: Xceptor captured on anti-human IgG-Fc, sIL-6R added, detected with anti-IL-6R-biotin
T2 construct: Bought; also called human soluble IL6R
T2 sequence (looked up): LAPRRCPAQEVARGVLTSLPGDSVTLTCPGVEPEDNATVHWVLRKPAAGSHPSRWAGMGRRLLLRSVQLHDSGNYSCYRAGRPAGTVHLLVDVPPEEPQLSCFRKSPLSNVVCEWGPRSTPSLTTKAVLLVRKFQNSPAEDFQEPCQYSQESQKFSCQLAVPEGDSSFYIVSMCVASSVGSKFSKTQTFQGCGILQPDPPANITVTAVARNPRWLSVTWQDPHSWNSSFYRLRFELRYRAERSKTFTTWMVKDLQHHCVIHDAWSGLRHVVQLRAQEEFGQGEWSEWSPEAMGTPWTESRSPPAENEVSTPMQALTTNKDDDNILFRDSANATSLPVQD
Description: Added to each well of a 96-well plate was 100 μl goat anti-human IgG-Fc (ICN Pharmaceuticals, Costa Mesa, Calif.) from a 2 μg/ml solution in PBS, pH 7.2-7.4. The plates were covered, and incubated overnight at 4° C. After washing four times with PBS-T, 250 μl Blocking buffer (PBS-T with 3% BSA or 10% normal goat serum) was added to each well, the plate was covered, and incubated at room temperature for 2 hours (or at 4° C. overnight). […] After washing the plate five times with PBS-T, added in duplicate wells was 100 μl/well recombinant human sIL-6R(R&D Systems) from a […] solution in Working buffer, the plate was covered, and incubated at room temperature for about 1 to 2 hours. After washing the plate five times with PBS-T, added 100 μl/well anti-human IL-6R-biotin (R&D Systems) from a 100 ng/ml solution in Working buffer, the plate was covered, and incubated at room temperature for about 1 to 2 hours. After washing the plate five times with PBS-T, 100 μl per well horse radish peroxidase-conjugated streptavidin (Zymed, San Francisco, Calif.) diluted 1:4,000 in Working buffer was added, the plate was covered, and incubated at room temperature for 30 minutes. After washing the plate six times with PBS-T, 100 μl per well 3,3,5,5-tetramentylbenzidine (TMB) substrate solution (Pierce, Rockford, Ill.) was added for about 3 to 5 minutes and then the reaction was stopped with 50 μl Stop buffer (1N H₂SO₄) per well. The absorbance of each well was read at 450 nm.

[3] = target: T1, recombinant human TNF-α; experiment: ELISA: plate-coated HIL-6, Xceptor, then rhTNF-α, detected with anti-TNF-α-biotin (simultaneous binding)
Description: The plate was covered, and incubated overnight at 4° C. […] The absorbance of each well was read at 450 nm.

[4] = target: TNFα (Biacore analyte of Example 12) (UniProt P01375 77-233, limits assumed); experiment: SPR (Biacore T100): binder captured by anti-human Fc, TNFα injected
Sequence of TNFα (Biacore analyte of Example 12) (P01375 77-233 limits assumed): as the sequence (P01375 77-233 limits assumed) above
From the text: The unoccupied sites of the activated surface were blocked by ethanolamine. […] At the end of the cycle, the surface was regenerated gently using 3M MgCl₂ which dissociates protein bound to anti hFc capture antibody. […] The value of this parameter was then fixed and the data from the low density surface were used to calculate the association rate constant, kₐ and the Rₘₐₓ. This strategy maximizes signal-to-noise for the dissociation phase data and reduces the mass transport limitation for the association phase data. BIAevaluation software was used to perform these analyses.

binding result [1]	binding result [2]	binding result [3]	Kd [4] [pM]	koff [4] [s⁻¹]	kon [4] [M⁻¹ s⁻¹]	Binder
binds	no binding					B1
binds	no binding					B2
binds	no binding					B3
		binds				B4
	no binding		3.1	0.00014	4.7e+07	B5
